Here are results for 1 substance from US20050059089A1 (priority 2003, published 2005).

One experiment has as its target T1, mouse GPCR142 (Mus musculus, UniProt Q7TQP4).
T1 construct: The complete coding region of the mouse GPCR142 was deposited in GenBank; expressed in transfected cells; CHO membranes (GTPγS, by the general protocol); HEK293 with Gα16 (Ca2+)
T1 sequence (Q7TQP4 1-414): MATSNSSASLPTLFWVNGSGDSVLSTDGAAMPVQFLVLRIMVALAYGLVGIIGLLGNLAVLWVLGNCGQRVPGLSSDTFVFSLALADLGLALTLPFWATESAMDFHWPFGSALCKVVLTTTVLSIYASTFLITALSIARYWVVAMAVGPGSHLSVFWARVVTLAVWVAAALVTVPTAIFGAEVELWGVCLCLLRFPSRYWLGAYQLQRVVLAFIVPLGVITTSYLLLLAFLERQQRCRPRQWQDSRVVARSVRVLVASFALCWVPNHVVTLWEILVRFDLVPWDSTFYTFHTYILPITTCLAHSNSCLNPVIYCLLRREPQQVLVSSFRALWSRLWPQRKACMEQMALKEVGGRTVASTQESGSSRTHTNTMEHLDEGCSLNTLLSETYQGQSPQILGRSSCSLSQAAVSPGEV
Nature of the experiment: Ca2+ mobilization assay, mouse GPCR142 and Gα16. Format: cell-based. As to conditions: cells expressing mouse GPCR142 and Gα16. The protocol: (§1) Human embryonic kidney (HEK) 293 cells were transfected with GPCR135,.GPCR142 or co-transfected with Gqi5 (Conklin et al. (1993), Nature 363, 274-280) or Gα16 (Amatruda et al. (1991), Proc. Natl. Acad. Sci. U.S.A. 88, 5587-5591) expressing plasmids using LipofectAmine. Two days after transfection, cells were detached with PBS plus 10 mM EDTA. The detached cells were washed with DMEM-F12 medium (without phenol red, Invitrogen) and seeded in black poly-D lysine coated 96-well plates (BD Biosciences, San Jose, Calif.) at a cell density of 50,000 cell/well.

In another experiment the target is T2, GPCR135 (Homo sapiens, UniProt Q9NSD7).
T2 sequence (Q9NSD7 1-469): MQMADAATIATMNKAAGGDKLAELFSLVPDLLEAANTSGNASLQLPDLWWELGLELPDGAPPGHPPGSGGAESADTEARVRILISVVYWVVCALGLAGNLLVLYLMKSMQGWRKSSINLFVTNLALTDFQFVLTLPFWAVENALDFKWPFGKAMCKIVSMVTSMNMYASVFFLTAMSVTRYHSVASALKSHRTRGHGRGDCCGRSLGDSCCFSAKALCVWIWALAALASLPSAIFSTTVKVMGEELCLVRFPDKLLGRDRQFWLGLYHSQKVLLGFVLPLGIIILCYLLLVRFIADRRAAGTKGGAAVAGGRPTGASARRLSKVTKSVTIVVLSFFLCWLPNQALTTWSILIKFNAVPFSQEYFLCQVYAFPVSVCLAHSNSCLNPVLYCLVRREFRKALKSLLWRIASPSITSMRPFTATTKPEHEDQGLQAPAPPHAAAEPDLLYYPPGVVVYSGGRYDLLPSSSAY
Description: Ca2+ mobilization assay, 293 cells co-expressing GPCR135 and Gqi5. Format: cell-based. The protocol: as §1

The target of experiment [1] is T3, GPCR142 (Homo sapiens, UniProt Q8TDU9, L329S). Nature of the experiment: Radioligand binding assay with 125I-relaxin3 (saturation and competition), COS-7 cell membranes. As to conditions: competition binding, COS-7 membranes; listed as unlabeled relaxin3. Also on record: The complete coding region of human GPCR142 was PCR-amplified from human genomic DNA; expressed in transfected cells. The method, then:
The binding mixtures were incubated at room temperature for 1 h and then were filtered through 96-well GFC plates (Packard) and washed with ice-cold washing buffer: 50 mM Tris-HCl, pH 7.4. Fifty microliters of Microscint-40 were added to each well and the plates were counted in a Topcounter NTX (Packard). The radioligand binding results were analyzed using GraphPad PRISM software.
The binding assays were performed at room temperature for an incubation time of one hour. The binding mixtures were then filtered through GFC filters pre-saturated with 0.3 polyethylenimine (Sigma) and washed with cold binding buffer. The bound radioligand was counted in a top counter (TopCount/NTX, Packard) with Microscint-40. The results were analyzed by Prism 3.0 software.

Experiment [2] addresses T3, GPCR142. Description: Inhibition of forskolin-stimulated cAMP (CRE-β-galactosidase) in SK-N-MC cells. Format: cell-based. Also on record: The complete coding region of human GPCR142 was PCR-amplified from human genomic DNA; expressed in transfected cells; HEK293 co-transfected with Gqi5 (Ca2+). As to conditions: SK-N-MC cells stably expressing GPCR142. The protocol: SK-N-MC cells stably expressing GPCR142 were established by transfection of GPCR142 expressing plasmids into SK-N-MC cells harboring a β-galactosidase gene under control of multiple cAMP responsive elements. The stable transfectants were selected by culturing the transfected cells under G418 selection (400 mg/L). The receptor expressing cells were seeded in 96-well plates at a cell density of 30,000 cells/well. After 24 h, cells were stimulated with forskolin or different peptides. Cells were cultured for an additional 6 h and the intracellular β-gal activity, which represents the intracellular cAMP accumulation, was measured as described by Liu et al. (2000), Mol. Pharmacol., 59, 420-426.

The target of experiment [3] is T3, GPCR142. Description: Ca2+ mobilization assay, 293 cells co-expressing GPCR142 and Gqi5. The class given is cell-based. Set-up: The complete coding region of human GPCR142 was PCR-amplified from human genomic DNA; expressed in transfected cells; HEK293 co-transfected with Gqi5 (Ca2+). The method, then: as §1

Where two headings read alike, the source gives them in different places.

T3 sequence (Q8TDU9 whole entry L329S): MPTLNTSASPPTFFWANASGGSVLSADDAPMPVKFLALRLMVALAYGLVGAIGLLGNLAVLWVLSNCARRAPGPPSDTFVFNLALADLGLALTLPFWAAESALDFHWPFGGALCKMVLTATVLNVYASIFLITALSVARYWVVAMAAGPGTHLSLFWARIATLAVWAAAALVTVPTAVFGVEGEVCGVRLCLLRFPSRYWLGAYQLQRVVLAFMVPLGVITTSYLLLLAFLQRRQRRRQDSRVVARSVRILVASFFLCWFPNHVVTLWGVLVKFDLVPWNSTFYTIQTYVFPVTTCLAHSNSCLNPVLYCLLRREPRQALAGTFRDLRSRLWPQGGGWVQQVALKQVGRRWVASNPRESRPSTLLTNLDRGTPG

As for “relaxin3: Human relaxin3 (SEQ ID NO: 6), produced recombinantly; mature peptide of A- and B-chain linked by disulfide bridges”, in the experiment with mouse GPCR142, the “Ca2+ response” value is “did not stimulate detectable Ca^2+ response”. Further, the “stimulation of Ca2+ mobilization” value with GPCR135 was “stimulates Ca^2+ mobilization”. The “displacement of 125I-relaxin3 binding to GPCR142” value in the experiment with GPCR142 [1] is “specifically displaced”. The “inhibition of forskolin induced β-galactosidase expression” value with GPCR142 [2] is given as “dose-dependently inhibits”. Also, the results for the “stimulation of Ca2+ signaling” value with GPCR142 [3] and with GPCR142 [3] (listed as Relaxin3) were “No relaxin3-stimulated Ca^2+ signaling was observed” and “does not stimulate any detectable Ca^2+ signal”, respectively.
